B1: Azoarcus group I ribozyme (parent)
chain: GUGCCUUGCGCCGGGAAACCACGCAAGGGAUGGUGUCAAAUUCGGCGAAACCUAAGCGCCCGCCCGGGCGUAUGGCAACGCCGAGCCAAGCUUCGGCGCCUGCGCCGAUGAAGGUGUAGAGACUAGACGGCACCCACCUAAGGCAAACGCUAUGGUGAAGGCAUAGUCCAGGGAGUGGCGAAAGUCACACAAACCGG

Variants of: B1
Test: reverse-splicing fitness (ratio to wild type); higher = more active; in vitro selection; Mg2+ level not given
In short: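 An in vitro group I ribozyme library with randomized positions was T7-transcribed and gel-purified. In triplicate, 10 pmol RNA in EPPS pH 7.5 was reacted with 50 pmoles of a 30-nt RNA substrate for 1 h at 37 °C across several added MgCl2 levels (1–48 mM), then stopped with EDTA. Products were reverse transcribed from a substrate-complementary primer, PCR-amplified and sequenced (HiSeq 4000). Fitness is a variant's read proportion after selection over that before, normalised to wild type.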

Going from A111C C150U U176G to A111C C150U U176A, the reverse-splicing fitness rises from 0.138 to 0.339.

First: A111C C150U U176C
Second: A111C A145U C169U U176G
The reverse-splicing fitness of the first is higher: 0.388 for the first, 0.00798 for the second.

Compared with A111C A145U C169U U176C, A111C A145U C169U U176A is lower in reverse-splicing fitness: 0.0282 for the first, 0.0258 for the second.

Going from A111C C150G C169G to A111C C150G C169A, the reverse-splicing fitness falls from 0.00897 to 0.00834.

Compared with A111C C150G C169U, A111C C150G C169G U176A is lower in reverse-splicing fitness: 0.0134 for the first, 0.00634 for the second.

Compared with A111C C150G C169G U176C, A111C C150G C169G U176G is higher in reverse-splicing fitness: 0.00414 for the first, 0.00532 for the second.

First: A111G A120C A145G C150U C169U U176C
Second: A111G A120C A145G C150U C169U U176A
The reverse-splicing fitness of the first is higher: 0.0607 for the first, 0.0456 for the second.

First: A111G A120C A145G C150U C169U U176G
Second: A111G A120C A145C U176A
The reverse-splicing fitness of the first is lower: 0.00537 for the first, 0.42 for the second.

First: A111G A120C A145C U176C
Second: A111G A120C A145C U176G
The reverse-splicing fitness of the first is higher: 0.419 for the first, 0.129 for the second.

First: A111G A120C A145G C150U U176A
Second: A111G A120C A145G C150U U176G
The reverse-splicing fitness of the first is higher: 0.287 for the first, 0.0682 for the second.

Compared with A111G A120C A145G C150U U176C, A111G A120C A145C C150A U176C is lower in reverse-splicing fitness: 0.316 for the first, 0.0404 for the second.

Compared with A111G A120C A145C C150A U176G, A111G A120C A145C C150A U176A is higher in reverse-splicing fitness: 0.0123 for the first, 0.0376 for the second.

Compared with A111C A145G C150G C169G, A111C A145G C150G C169A is lower in reverse-splicing fitness: 0.0116 for the first, 0.00939 for the second.

Going from A111C A145G C150G C169U to A111C A145U C150G C169A, the reverse-splicing fitness falls from 0.0157 to 0.00994.

First: A111C A145U C150G C169G
Second: A111C A145U C150G C169U
The reverse-splicing fitness of the first is lower: 0.0101 for the first, 0.0178 for the second.

Going from A111C A145U C150A C169G U176G to A111C A145U C150A C169G U176A, the reverse-splicing fitness rises from 0.00765 to 0.0133.

First: A111C A145U C150A C169G U176C
Second: A111C A145G C150A C169A U176G
The reverse-splicing fitness of the first is higher: 0.0203 for the first, 0.00852 for the second.

First: A111C A145G C150A C169A U176C
Second: A111C A145G C150A C169A U176A
The reverse-splicing fitness of the first is higher: 0.0182 for the first, 0.0169 for the second.

First: A111G A120C A145C C150U C169A U176C
Second: A111G A120C A145C C150U C169A U176A
The reverse-splicing fitness of the first is lower: 0.00426 for the first, 0.00824 for the second.

Going from A111G A120C A145C C150U C169A U176G to A111C A145G C150G U176A, the reverse-splicing fitness rises from 0.00419 to 0.0686.

Compared with A111C A145G C150G U176C, A111C A145G C150G U176G is lower in reverse-splicing fitness: 0.13 for the first, 0.0194 for the second.

First: A111C A145G C150A C169U U176C
Second: A111C A145G C150A C169U U176G
The reverse-splicing fitness of the first is higher: 0.019 for the first, 0.00843 for the second.

Compared with A111C A145G C150A C169U U176A, A111C A145C C169U U176G is lower in reverse-splicing fitness: 0.0185 for the first, 0.00694 for the second.

First: A111C A145C C169U U176A
Second: A111C A145C C169U U176C
The reverse-splicing fitness of the first is higher: 0.0278 for the first, 0.0254 for the second.

Going from A111C C150U C169A U176G to A111C C150U C169A U176A, the reverse-splicing fitness rises from 0.00796 to 0.0164.

First: A111C C150U C169A U176C
Second: A111G A120C A145G C150G C169G
The reverse-splicing fitness of the first is higher: 0.0136 for the first, 0.0082 for the second.

First: A111G A120C A145G C150G C169U
Second: A111G A120C A145G C150G C169A
The reverse-splicing fitness of the first is higher: 0.0255 for the first, 0.00936 for the second.

First: A111G A120C A145C C150U C169A
Second: A111G A120C A145C C150U C169G
The reverse-splicing fitness of the first is lower: 0.00825 for the first, 0.00938 for the second.

First: A111G A120C A145C C150U C169U
Second: A111C A145G C150G C169A U176G
The reverse-splicing fitness of the first is higher: 0.0786 for the first, 0.00766 for the second.

First: A111C A145G C150G C169A U176A
Second: A111C A145G C150G C169A U176C
The reverse-splicing fitness of the first is higher: 0.0119 for the first, 0.011 for the second.

First: A111C A145U U176A
Second: A111C A145U U176C
The reverse-splicing fitness of the first is higher: 0.424 for the first, 0.398 for the second.

Going from A111C A145U U176G to A111G, the reverse-splicing fitness rises from 0.276 to 1.01.

Compared with A111G A120C A145G C150A U176A, A111G A120C A145G C150A U176C is higher in reverse-splicing fitness: 0.0804 for the first, 0.0998 for the second.

Compared with A111G A120C A145G C150A U176G, A111C A145G C150U C169G U176A is lower in reverse-splicing fitness: 0.0203 for the first, 0.0138 for the second.

First: A111C A145G C150U C169G U176C
Second: A111C A145G C150U C169G U176G
The reverse-splicing fitness of the first is higher: 0.021 for the first, 0.00741 for the second.

First: A111C A145U C150A C169U U176A
Second: A111C A145U C150A C169U U176G
The reverse-splicing fitness of the first is higher: 0.0176 for the first, 0.00751 for the second.

First: A111C A145U C150A C169U U176C
Second: A111G A120C A145C C150G
The reverse-splicing fitness of the first is lower: 0.0154 for the first, 0.136 for the second.

Going from A111G A120C A145C C150A to A111G A120C A145C C150U, the reverse-splicing fitness rises from 0.0611 to 0.298.

Compared with A111C A145U C150G C169A U176G, A111C A145U C150G C169A U176C is higher in reverse-splicing fitness: 0.007 for the first, 0.011 for the second.

First: A111C A145U C150G C169A U176A
Second: A111G A120C A145C C150A C169G U176C
The reverse-splicing fitness of the first is lower: 0.00872 for the first, 0.00982 for the second.

Compared with A111G A120C A145C C150A C169G U176G, A111G A120C A145C C150A C169G U176A is higher in reverse-splicing fitness: 0.00452 for the first, 0.0185 for the second.

For A111C A145G C150U, the reverse-splicing fitness was 0.679.

Reference: the RNAGym collection of RNA variant scans (doi:10.1093/molbev/msab373)
